Holding throughout (conditions): tags: His-tag, E. coli; stem-loop
For one series, the target named is T1, PAH TH63-64PN (Homo sapiens, UniProt P00439 P00439:1-452, T63P,H64N).
T1 sequence: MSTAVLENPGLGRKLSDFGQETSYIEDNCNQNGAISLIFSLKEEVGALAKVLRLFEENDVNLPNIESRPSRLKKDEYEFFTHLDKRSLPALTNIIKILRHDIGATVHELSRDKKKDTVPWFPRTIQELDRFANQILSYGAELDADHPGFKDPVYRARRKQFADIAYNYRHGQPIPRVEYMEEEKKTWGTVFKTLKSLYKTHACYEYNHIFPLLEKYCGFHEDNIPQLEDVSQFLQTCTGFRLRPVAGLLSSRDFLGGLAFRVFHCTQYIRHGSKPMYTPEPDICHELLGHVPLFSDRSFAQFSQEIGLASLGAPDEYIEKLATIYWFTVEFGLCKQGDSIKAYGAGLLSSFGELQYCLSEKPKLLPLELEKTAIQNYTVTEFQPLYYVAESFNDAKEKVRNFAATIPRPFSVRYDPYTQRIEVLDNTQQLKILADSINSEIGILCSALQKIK
The series can be described thus: EMSA; also decreased affinity in quantified assay. The text has this: (§1) It was reasoned that supplementing lncRNAs might improve the catalytic activities of the PAH mutants, leading to reduced serum Phe concentrations and improved symptoms in patients with PKU. Scramble (Scr) and HULC mimics representing wild-type HULC nt. 181-201 and HULC A191G mutated sequences were designed for the following studies. 17 PAH mutants that were identified from patients with PKU and are known to affect the enzymatic activity of PAH (21, 22) were selected, and bacterially-expressed wild-type and mutant PAH (FIG. 10 and see FIG. S13A in Li et al. 2021) were collected. […] The denatured wild-type PAH proteins were included as a negative control.
(§2) RNA Electrophoretic Mobility Shift Assay (EMSA). The gel mobility shift assay was performed as previously described (42). Briefly, 500 ng recombinant His-tagged wild-type PAH or mutants were incubated with 0.035 μmol labeled probe in a RNA-protein binding buffer [(50 mM Tris-HCl 7.9, 10% glycerol, 100 mM KCl, 5 mM MgCl₂, 10 mM (3-ME, 0.1% NP40] for 30 min at 30° C. For cold RNA competition, 0.035 μmol radiolabeled RNA probes were first mixed with 7 μmol cold RNA competitors and then subjected to the gel shift assay.
A general note: In EMSA bound probe runs differently from free probe, usually more slowly.

In a further series the target is T2, PAH N207S (Homo sapiens, UniProt P00439 P00439:1-452, N207S).
T2 sequence: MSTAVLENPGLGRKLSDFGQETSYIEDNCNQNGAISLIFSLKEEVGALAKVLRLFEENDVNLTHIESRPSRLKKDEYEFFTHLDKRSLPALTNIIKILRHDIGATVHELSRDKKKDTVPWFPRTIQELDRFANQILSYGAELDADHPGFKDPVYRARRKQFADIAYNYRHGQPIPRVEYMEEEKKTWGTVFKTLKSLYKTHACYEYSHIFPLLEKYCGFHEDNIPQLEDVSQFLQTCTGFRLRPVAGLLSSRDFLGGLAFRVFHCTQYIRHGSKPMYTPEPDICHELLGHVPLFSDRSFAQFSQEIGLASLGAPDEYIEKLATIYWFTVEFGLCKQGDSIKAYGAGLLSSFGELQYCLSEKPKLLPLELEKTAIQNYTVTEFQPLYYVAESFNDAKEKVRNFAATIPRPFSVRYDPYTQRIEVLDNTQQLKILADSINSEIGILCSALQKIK
The series can be described thus: EMSA; also decreased affinity in quantified assay.
Text: as §1, §2

Another series has as its target T3, PAH S349L (Homo sapiens, UniProt P00439 P00439:1-452, S349L).
T3 sequence: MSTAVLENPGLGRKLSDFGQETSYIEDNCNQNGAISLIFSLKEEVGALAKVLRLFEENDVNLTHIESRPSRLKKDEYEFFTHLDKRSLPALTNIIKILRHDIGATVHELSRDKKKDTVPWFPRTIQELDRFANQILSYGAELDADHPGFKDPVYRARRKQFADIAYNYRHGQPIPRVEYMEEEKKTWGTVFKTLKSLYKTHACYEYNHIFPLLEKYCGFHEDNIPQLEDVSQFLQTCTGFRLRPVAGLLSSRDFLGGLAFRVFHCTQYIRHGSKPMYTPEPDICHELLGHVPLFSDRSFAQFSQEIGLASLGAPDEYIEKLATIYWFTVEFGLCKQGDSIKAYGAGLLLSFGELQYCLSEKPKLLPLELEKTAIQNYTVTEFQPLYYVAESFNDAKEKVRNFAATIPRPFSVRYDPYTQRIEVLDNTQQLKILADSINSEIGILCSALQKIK
The series can be described thus: EMSA; also decreased affinity in quantified assay.
Text: as §1, §2

For another series, the target named is T4, PAH P275L (Homo sapiens, UniProt P00439 P00439:1-452, P275L).
T4 sequence: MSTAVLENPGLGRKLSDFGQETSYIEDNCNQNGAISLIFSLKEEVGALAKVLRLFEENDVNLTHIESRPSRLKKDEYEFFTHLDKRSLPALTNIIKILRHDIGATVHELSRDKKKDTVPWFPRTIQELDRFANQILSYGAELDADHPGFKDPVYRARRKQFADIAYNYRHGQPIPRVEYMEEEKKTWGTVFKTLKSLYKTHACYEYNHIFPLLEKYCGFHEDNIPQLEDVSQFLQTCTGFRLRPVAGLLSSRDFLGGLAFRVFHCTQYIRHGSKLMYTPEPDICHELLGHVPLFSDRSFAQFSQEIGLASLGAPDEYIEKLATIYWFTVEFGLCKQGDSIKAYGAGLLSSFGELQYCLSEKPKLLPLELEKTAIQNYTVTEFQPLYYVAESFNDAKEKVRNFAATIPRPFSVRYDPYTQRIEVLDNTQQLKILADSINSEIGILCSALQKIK
The series can be described thus: EMSA; one of 13 of 17 binding mutants; affinity not decreased.

B1: HULC 181-201 mimic (ssRNA)
RNA: CAAAAUGCAUAUGUAUCUUUG
On to B1, for which the binding result is “no binding” with PAH TH63-64PN, “no binding” with PAH N207S, “no binding” with PAH S349L and “binds” with PAH P275L.

Values taken from US20240342207, “MODIFIED NUCLEIC ACID COMPOSITIONS AND ASSOCIATED METHODS FOR TREATMENT OF PHENYLKETONURIA” (BOARD OF REGENTS, THE UNIVERSITY OF TEXAS SYSTEM, published 2024).
